Results from publication doi:10.1101/2021.02.24.432666 (bioRxiv, 2021).
“And” between values parts separate entries of the source, which are not always exact repeats. Equal entries are not always repeated. Where two headings read alike, the source gives them in different places.

B1: yeast TRiC subunit CCT6 (natural protein)
chain: not shown
B2: yeast TRiC subunit CCT1 (natural protein)
chain: not shown
B3: yeast TRiC subunit CCT7 (natural protein, UniProt P42943 1-550, looked up)
chain: MNFGSQTPTIVVLKEGTDASQGKGQIISNINACVAVQEALKPTLGPLGSDILIVTSNQKTTISNDGATILKLLDVVHPAAKTLVDISRAQDAEVGDGTTSVTILAGELMKEAKPFLEEGISSHLIMKGYRKAVSLAVEKINELAVDITSEKSSGRELLERCARTAMSSKLIHNNADFFVKMCVDAVLSLDRNDLDDKLIGIKKIPGGAMEESLFINGVAFKKTFSYAGFEQQPKKFNNPKILSLNVELELKAEKDNAEVRVEHVEDYQAIVDAEWQLIFEKLRQVEETGANIVLSKLPIGDLATQFFADRNIFCAGRVSADDMNRVIQAVGGSIQSTTSDIKPEHLGTCALFEEMQIGSERYNLFQGCPQAKTCTLLLRGGAEQVIAEVERSLHDAIMIVKRALQNKLIVAGGGATEMEVSKCLRDYSKTIAGKQQMIINAFAKALEVIPRQLCENAGFDAIEILNKLRLAHSKGEKWYGVVFETENIGDNFAKFVWEPALVKINALNSATEATNLILSVDETITNKGSESANAGMMPPQGAGRGRGMPM
B4: yeast TRiC subunit CCT2 (natural protein)
chain: MSVQIFGDQVTEERAENARLSAFVGAIAVGDLVKSTLGPKGMDKLLQSASSNTCMVTNDGATILKSIPLDNPAAKVLVNISKVQDDEVGDGTTSVTVLSAELLREAEKLIDQSKIHPQTIIEGYRLASAAALDALTKAAVDNSHDKTMFREDLIHIAKTTLSSKILSQDKDHFAELATNAILRLKGSTNLEHIQIIKILGGKLSDSFLDEGFILAKKFGNNQPKRIENAKILIANTTLDTDKVKIFGTKFKVDSTAKLAQLEKAEREKMKNKIAKISKFGINTFINRQLIYDYPEQLFTDLGINSIEHADFEGVERLALVTGGEVVSTFDEPSKCKLGECDVIEEIMLGEQPFLKFSGCKAGEACTIVLRGATDQTLDEAERSLHDALSVLSQTTKETRTVLGGGCAEMVMSKAVDTEAQNIDGKKSLAVEAFARALRQLPTILADNAGFDSSELVSKLRSSIYNGISTSGLDLNNGTIADMRQLGIVESYKLKRAVVSSASEAAEVLLRVDNIIRARPRTANRQHM
B5: yeast CCT5 with the N-terminal 24 amino acids truncated (CCT5^ΔNT) (domain or fragment, UniProt P40413 25-562, looked up)
chain: MGRPFIIVKDQGNKKRQHGLEAKKSHILAARSVASIIKTSLGPRGLDKILISPDGEITITNDGATILSQMELDNEIAKLLVQLSKSQDDEIGDGTTGVVVLASALLDQALELIQKGIHPIKIANGFDEAAKLAISKLEETCDDISASNDELFRDFLLRAAKTSLGSKIVSKDHDRFAEMAVEAVINVMDKDRKDVDFDLIKMQGRVGGSISDSKLINGVILDKDFSHPQMPKCVLPKEGSDGVKLAILTCPFEPPKPKTKHKLDISSVEEYQKLQTYEQDKFKEMIDDVKKAGADVVICQWGFDDEANHLLLQNDLPAVRWVGGQELEHIAISTNGRIVPRFQDLSKDKLGTCSRIYEQEFGTTKDRMLIIEQSKETKTVTCFVRGSNKMIVDEAERALHDSLCVVRNLVKDSRVVYGGGAAEVTMSLAVSEEADKQRGIDQYAFRGFAQALDTIPMTLAENSGLDPIGTLSTLKSKQLKEKISNIGVDCLGYGSNDMKELFVVDPFIGKKQQILLATQLCRMILKIDNVIISGKDEY
B6: yeast TRiC subunit CCT4 (natural protein, UniProt P39078 1-528, looked up)
chain: MSAKVPSNATFKNKEKPQEVRKANIIAARSVADAIRTSLGPKGMDKMIKTSRGEIIISNDGHTILKQMAILHPVARMLVEVSAAQDSEAGDGTTSVVILTGALLGAAERLLNKGIHPTIIADSFQSAAKRSVDILLEMCHKVSLSDREQLVRAASTSLSSKIVSQYSSFLAPLAVDSVLKISDENSKNVDLNDIRLVKKVGGTIDDTEMIDGVVLTQTAIKSAGGPTRKEKAKIGLIQFQISPPKPDTENNIIVNDYRQMDKILKEERAYLLNICKKIKKAKCNVLLIQKSILRDAVNDLALHFLSKLNIMVVKDIEREEIEFLSKGLGCKPIADIELFTEDRLGSADLVEEIDSDGSKIVRVTGIRNNNARPTVSVVIRGANNMIIDETERSLHDALCVIRCLVKERGLIAGGGAPEIEISRRLSKEARSMEGVQAFIWQEFASALEVIPTTLAENAGLNSIKVVTELRSKHENGELNDGISVRRSGTTNTYEEHILQPVLVSTSAITLASECVKSILRIDDIAFSR
B7: yeast TRiC subunit CCT3 (natural protein, UniProt P39077 1-534, looked up)
chain: MQAPVVFMNASQERTTGRQAQISNITAAKAVADVIRTCLGPKAMLKMLLDPMGGLVLTNDGHAILREIDVAHPAAKSMLELSRTQDEEVGDGTTTVIILAGEILAQCAPYLIEKNIHPVIIIQALKKALTDALEVIKQVSKPVDVENDAAMKKLIQASIGTKYVIHWSEKMCELALDAVKTVRKDLGQTVEGEPNFEIDIKRYVRVEKIPGGDVLDSRVLKGVLLNKDVVHPKMSRHIENPRVVLLDCPLEYKKGESQTNIEIEKEEDWNRILQIEEEQVQLMCEQILAVRPTLVITEKGVSDLAQHYLLKGGCSVLRRVKKSDNNRIARVTGATIVNRVEDLKESDVGTNCGLFKVEMIGDEYFSFLDNCKEPKACTIMLRGGSKDILNEIDRNLQDAMAVARNVMLSPSLSPGGGATEMAVSVKLAEKAKQLEGIQQWPYQAVADAMECIPRTLIQNAGGDPIRLLSQLRAKHAQGNFTTGIDGDKGKIVDMVSYGIWEPEVIKQQSVKTAIESACLLLRVDDIVSGVRKQE
B8: yeast TRiC subunit CCT8 (natural protein, UniProt P47079 1-568, looked up)
chain: MSLRLPQNPNAGLFKQGYNSYSNADGQIIKSIAAIRELHQMCLTSMGPCGRNKIIVNHLGKIIITNDAATMLRELDIVHPAVKVLVMATEQQKIDMGDGTNLVMILAGELLNVSEKLISMGLSAVEIIQGYNMARKFTLKELDEMVVGEITDKNDKNELLKMIKPVISSKKYGSEDILSELVSEAVSHVLPVAQQAGEIPYFNVDSIRVVKIMGGSLSNSTVIKGMVFNREPEGHVKSLSEDKKHKVAVFTCPLDIANTETKGTVLLHNAQEMLDFSKGEEKQIDAMMKEIADMGVECIVAGAGVGELALHYLNRYGILVLKVPSKFELRRLCRVCGATPLPRLGAPTPEELGLVETVKTMEIGGDRVTVFKQEQGEISRTSTIILRGATQNNLDDIERAIDDGVAAVKGLMKPSGGKLLPGAGATEIELISRITKYGERTPGLLQLAIKQFAVAFEVVPRTLAETAGLDVNEVLPNLYAAHNVTEPGAVKTDHLYKGVDIDGESDEGVKDIREENIYDMLATKKFAINVATEAATTVLSIDQIIMAKKAGGPRAPQGPRPGNWDQED

How the values were obtained:
[1] = target: the molecule itself; assay: cryo-EM structure
[2] = target: the molecule itself; assay: cryo-EM structure; remark: listed apart in the source
[3] = target: the molecule itself; assay: SEC + other: negative-staining electron microscopy
[4] = target: the molecule itself; assay: negative-staining electron microscopy

Protein | stoichiometry N [2] | binding result [3] | further results
B1 | 8 subunits per ring (double ring) and 9 subunits per ring (double ring) | – | stoichiometry N [1]: 8 subunits per ring and 9 subunits per ring
B2 | 8 subunits per ring (double ring) | – | stoichiometry N [1]: 9 subunit pairs
B3 | – | binds | –
B4 | 8 subunits per ring (double ring) | – | –
B5 | – | – | binding result [4]: binds
B6 | – | binds | –
B7 | – | binds | –
B8 | – | binds | –
